Reference: the nanobody polyreactivity screen of Harvey et al. (2022)

Assay: yeast display, Sf9 membrane polyspecificity reagent, FACS + sequencing; frameworks hold sequencing errors
Summary of the method: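 Using colony PCR, genes from sorted yeast display clones were amplified, then sequenced on MiSeq at 2 × 250 and filtered by CDR length. The clones had been stained with 10% biotinylated, detergent-solubilized Sf9 membrane reagent for 1 hour at 4 °C and sorted by FACS into low and high (top ~1%) gates on anti-HA and streptavidin fluorescence. Polyreactivity labels come from the gate of origin.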

Sequence	polyreactivity (PSR sort gate)
QVQLVESGGGLVQAGGSLRLSWAASGRIFIGYPMGWYRQAPGKERELVAAISRNGDNTYYADSVKGRFTISRDNAKNTVYLQMNSLKPEDSAVYYCAAVAYPREWKLSYEDGSWGYDYWGQGTQVTVSS	low polyreactivity
QVQLVESGGGLVQAGGSLRLSCGASGRTIDYNGMGWYRQEPGKERELVSVISSSGGSTFYADSVKGRFTISRDNAKNTVYLQMNSLEPEDTAVYYCAALHVGHNYYNSGFYYWGQGTQVTVSS	low polyreactivity
QVQLVESGGGLFQAGGSLRLSCAASGFTFGYYAMGWYRQAPGKERELVASISITAGSTYYADSVKGRFTISRDNAKNTVYLQMNSLKPEDTAVYYCAAKRRTRQSYYTEYYWGQGTQVTVSS	high polyreactivity
QVQLVESGGGLVQAGGSLRLSCAACGSTFRYNTMGWYRQATGTEREVVAAISSAATTNYADSVKGRFTISRDNAKNTVYLQLNSLNPEDTALYYCARGYSWSVGYPRVQDMDYWGQGTQVTVSS	high polyreactivity
QVQLVESGGGLVQAGGSLRLSCAASGNTFGNYAMGWYRQAPGKERELVAAITTIGGSTYYADSVKGRFTISRDNAKNTVYLQMNRLKPEDTAVYYCAKVENRYPVGKYDYWGQGTQVTVSS	low polyreactivity
QVQLVESGGGLVQAGGSLRLSCAASGLTFYPNAMGWYRPAPGKEREFVASISISGRTYYADSVKGRFTISRDNAKNTVYLQMNSLKPEDTAVYYCAARYVRSGLYRKYDYWGQGTQVTVSS	high polyreactivity
QVQLVESGGGLVQAGGSLRLSFAASGFTFKYYAMGWYRPAPGKERELVAAIRSGGSTYYADSVKGRFTISRDNAKNTVYLQMNSLKPEDTAVYYCNAPAFYRYGLNYWGQGTQVTVSS	high polyreactivity
HVQLVESGGGLVQAGGSLRLSCAASGRILHLNAMGWYRQAPGKERELVAAITRSGSSTYYADSVKGRFTISRDNAKNTVYLQMNSLKAEDTAVYYCAADWYPHSSAYDYWGQGTQVTVSS	low polyreactivity
QVQLVESGGGLVQAGGILRLSCAASGNIFPINAMGWYRQAPGKEREFVAAITRSGSRTYYADSVKGRFTISRDNAKNTVYLQMNSLKKEDTAVYYCADRGNSTPVYSRYGYWGQGTQVTVSS	low polyreactivity
QVQLVESGGGLVQAGGSLRLSCAASGRIFYFNAMGWYRQAPGKEREFVASINSIGDSTYYADSVKGRFTISRDNAKNTVYIQMNSQKPEDTAVYYCKADHGVINYRLDYWGHGTQVTVSS	low polyreactivity
QVQLVESGGGLVQAGGSLRLSCAASGSILFVYAMGWYRQAPGKERELVAGINSSGTSTYADSVKGRFTISRDNAKNTVYLQMNSLKPEDTAVYYCAARWFYYRWAYDYWGQGTQVTVSS	low polyreactivity
QVQLVESGGGLVQAGGSLRLSCAASGFIFDYYAMGWYRQAPGKERELVAAITSRGGSTYYADSVKGRFTISRDNAKNTVYLQMNSLKPEDTAVYYCAARRRSAEYNYWGQGTQVTVSS	high polyreactivity
QVQLVESGGGLVQARGSLRLSSGASGSTFATDYAMGWYRQAPGKERELDAAIAYTSASTYYADSVKGRITISRDNAKNPVYLQMNTLKPEDTAVYYCAADYGGTREYYWGQGTQVTVSS	low polyreactivity
QVQLVETGGGLVQAGGSLRLSSAASGITFKWNDMGCYRQAPGKEREFVAAITGSTGSTFYADSVKGRFTISRDNAKNTVYLQMNSLKPEDTAVYYCAAGPWFYYWGQGTEVTVSS	low polyreactivity
QVQLVESVGGLVQAGGSLRLSCSASGSIFDYYAMGWYRQAPGKQRELVAAITSGGSTYYADSVKGRFTISRDNAKNTVYLQMNSLNPEDTAVYYCNATYYYWLSYDYWGQGTQVSVSS	low polyreactivity
QVQLEESRGGLVQAGGSLRLSCAASGFIIKHYAMGWYRQAPRKERELVAAISKRGGSTYYADSVKGRFTISRDNAKNTVYLQMNSLKPEDTAVYYCNAYLYVWHYPSGDEYDYWGQGTQVTVSS	high polyreactivity
QVQLVESGGGLVQAGGSLRLSCAASGFTFWPNAMGWYRQAPGKERELVAAINWSGGSTYYADSVKGRFTISRDNAKNSVYLQMNSLKPEDTAVYYCNADPYLLEHDYWGQGTQVSVSS	low polyreactivity
QVQLVESGGGLVQAGGSLRLSCAASGRIFYYYAMGWYRQAPGKEREFVAAITGRGGSTYYADSVKGRFTISRDNAKNTVYLQMNSLKPEDTAVYYCNAGQYFEYYGWYSRYGYWGQGTQVTVSS	low polyreactivity
QVQLVESGGGLVQAGGSLRLSCAASGLIFYHNAMRWYRQAPGKERELVAAMTASGGSTYYADSVKGRFTISRDNAKNTVYLQMNSLKPEDTAVYYCAADGPLDSDLDYWGQGTQVTVSS	low polyreactivity
QVQLVESGGGLVQAGGSLRLSCAASGRTFGYNAMGWYRQAAGKERELVAAISSSGGSTYYADSVKGRFTISRDNAKNTVYLQMNSLKPEDTAVYYCATQGYSWAHGSDYWGQGTQVTVSS	low polyreactivity
QVQLVESGGGLVQAGGSLRLSCAASGGIFGYYTRGWYRQAPGKEREVVAAISRRGGSTYYADSVKGRFTISRDNAKNTVYLQMNSLKPEDTAVYYCAAGLSSGGTHYDYWGQGTQVTVSS	high polyreactivity
QVQLVESGGGLVQAGGSLRLSCAASGRTFTWNVMGWYRQAPGKERELVAAITTDDRTYADSVKGRFTISRDNAKNTVYLQMNILKPEDTAVYYCATVVAWSSRPVGEDYWGQGTQVTVSS	low polyreactivity

Sequence	polyreactivity (PSR sort gate)
QVQRVASGGGLVQAGGSLRLSWAASGSIVVRYTMGWYRQAPGKERELVAGISSRGGSTYYADSVKGRFTISRDNAKNTVSLQLNSLTPEDTAVYYCAKERSYSRSGGTYYYWGQRTQVTVSS	high polyreactivity
QVQLVESGGGLVQAGGSLRLSCAASGFTFHRNAMGWYRQAPGKERELVAAITLNGGSSTYYADSVKGRFTISRDNAKNTVYLQMNSLKPEDTAVYYCARDSYSYTFSKNSDPAEYDYWGQGTQVTVSS	low polyreactivity
QVQLVESGGGLVQAGGSLRLSCAASGRTVDWYAMGWYRQAPGTDRELVAVISSSGGRTYYADSVKGRFTISRDNAKNTVYLQMNRLKPEDTAVYYCATQNGSKRYSYYYWGQGTQVTVSS	high polyreactivity
QVQLVESGGGIVQAGGSLRLSCAASGFTIWKYAMGLYRQAPGKERELVAAISVSGGRTNYADSVKGRFTISGDNAKNTVYLQMNSLKPEDTAVYYCIATPWRPYVGGEYWGQGTHVTVSS	high polyreactivity
QVQLVDSGGGLVQAGGSLRFSCAASGSIFPVNVMGWYRQAPGKERELVADITSTGTYYADSVKGRFTISRDNAKNTDYLQMNSLKPEDTAVYYCAKAGGSWYRRYYYWGQGTQVTVSS	high polyreactivity
QVQLVESGGGLVQAGGSLRLSCAASRSIFPYNVMGWYRQAPGTEMELVAAISTRGGRTYYADSVKGRFTISRDYAKNTVYLQMNSLKPEDTAVYYCATAGGPYSDSGYYWGHGTQVTVSS	high polyreactivity
QVQLVESGGGLVQAGGSLRLSCAASGRIFWYVLGWYRQAPGNERELVATITSSGGSSYYADSVKGRFTISRDNAKNTVYLQMNSLKPEDTAVNYCAVDLQTLGADRIITVYVGEDYWGQGTQVTVSS	low polyreactivity
QVQLVESGGGLVQAGGSLRLSCAASGFTFSSNAMGWYRQAPGKEREFVAAISFNSTSTYYADSVKGRFKISRDNAKNTVYLQMNSLKPEDTAVYYCAADVPRVQSEPEYDYWGQGTQVTVSS	low polyreactivity
QVQLVESGGGLVQAGGSLRLSCAASGSIFYYNALGWYRQAPGKERELVAVISYRSGRTSYADSVKGRFTISRDNAKNTVYLQMNSLKPEDTAVYYCNAKPAVSFSRHYYRYDYWGQGTQVTVSS	high polyreactivity
QVQLVESGGGLVQAGGSLRLSCAASGRIFGDNTMGWYRQAPGKERELVAAISFTGGSTYYADSVKGRFSISRDNAKNTVYLQMNSLKPEDTAVYYCNADWVSTWGYDYWGQGTQVTVSS	low polyreactivity
QVQLVESGGGLVQAGGSLRLSCAASGNTFRFYTMGWYRQAPGKERELVAAINSSGRTNYADSVKGRFTISRDNAKNTVYLQMNSLKPEDTAVYYCAADYYQWSSFLGVYEYDYWGQGTQVTVSS	low polyreactivity
QVQLVESWGGLVQAGGRLRLSCAASGNTFWDNAMRWYRQAPGKERELVAAIRWSTVSTHYADSVKGRFTISRDNAKNTVYLQMNSLKPEDTAVYDCAATAYYYYRDKYYGYDYWGQGTHVTVSS	low polyreactivity
QVQLVESGGGLVQAGGSLRLSCAASGSIFPGYAMGWYRQAPGKERELVATITYSDGSTYYADSVKGRFTISRDNAKNTVYLQMNSLKPEDTAVYYCAVTYWWYYGYDYWGQGTQVTVSS	low polyreactivity
QVQLVESGGGLVQAGGSLRLSCAASGSIIGRYAMGWYRQAPAKERELVATITFRDTSTYYADSVKGRFTISRDNAKNTVYLQMNSLKTEDTAVYYCAAVRADLWDIARYDYWGQGTQVTVSS	low polyreactivity
QVQLVESGGGLVQAGGSLRLSCAASGSTFASNAMGWYRQAPGKARELVAGISSSDGGTYYADSVKGRFTISRDIAKYNVYLEMKSLKPEDTAVYSCNAPPGTFQWQGHSDYWGQGTEVTVSS	low polyreactivity
QVQLVESGGGLVQAGGSLRLSCAASGLTFSGNVMGWYRQAPGKERELVAAIDRSGGSTYYADSVKGRFTISRDNAKNTVYLQMNSLKPEDTAVYYCAVSSYPNHSRSWDDYWGQGTQVTVSS	low polyreactivity
QVQLVESGRGLVQAGGTLRLSCAASGFIFATNTMGWYRQAPGKERELVAASSTYYADSVKGRFTISRDNAKNTVYLQMNSLKPEDTAVYYCNADRDSYIGFVDWAGEYWGQGTQVTVSS	low polyreactivity
QVQLVESGGGLVQAGGSLRLSCAASGRIFARYAMGWYRQAPGKERELVAAISRGGGSTYYADSVKGRFTISRDNAKNTVYLQMNSLKPEDTAVYYCNRLSKQKQEFDYWGQGTQVTVSS	high polyreactivity
QVQLVESGGGLVQAGGSLRLSCAASGRIFSNYAMGWYRQAPGKERELVAAITRSGGSTYYADSVKGRFTISRDNAKNTVYLQMNSLKPEDTAVYYCNTAYRRRYTYDYWGQGTQVTVSS	high polyreactivity
QVQIVESGGGLVQAGGSLRLSCSASGSTFPFYAMGWYRQAPGKERELVAAITRSGSRTYYADSVKGRFTISRDNAKNTVFLQMNSLKPEDTAVYYFAASSTDLYFWGQGTQVTVSS	high polyreactivity
QVQLVESGGGLVQAGGSLRLSSAASGNIFPAYPMGWYRQAPGKERELVAAISKSGGRTYYADSVKGRFTISRDNAKNTVYLQMNSLKPEDTAVYYALLTVLRAVPYSVRYDYWGQGTQVTVSS	high polyreactivity
